Molecular target: gga1_human GGA1 (UniProt Q9UJY5)
Sequence (Q9UJY5 whole entry): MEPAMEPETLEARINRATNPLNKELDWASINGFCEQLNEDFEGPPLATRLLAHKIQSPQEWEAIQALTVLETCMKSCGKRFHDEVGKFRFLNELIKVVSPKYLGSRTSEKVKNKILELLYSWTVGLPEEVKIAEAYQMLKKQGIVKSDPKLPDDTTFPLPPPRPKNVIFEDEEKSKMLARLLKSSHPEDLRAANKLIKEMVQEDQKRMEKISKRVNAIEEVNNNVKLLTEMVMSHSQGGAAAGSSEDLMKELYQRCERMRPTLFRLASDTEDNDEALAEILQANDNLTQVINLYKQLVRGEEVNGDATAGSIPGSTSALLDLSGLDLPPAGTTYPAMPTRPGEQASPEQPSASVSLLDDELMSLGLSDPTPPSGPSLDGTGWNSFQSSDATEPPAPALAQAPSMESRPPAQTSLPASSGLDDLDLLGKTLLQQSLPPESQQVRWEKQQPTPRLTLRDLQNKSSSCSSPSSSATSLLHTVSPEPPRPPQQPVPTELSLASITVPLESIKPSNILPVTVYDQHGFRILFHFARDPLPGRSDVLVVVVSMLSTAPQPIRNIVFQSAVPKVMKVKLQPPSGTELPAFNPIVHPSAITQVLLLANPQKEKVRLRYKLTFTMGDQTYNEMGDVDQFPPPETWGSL

- effect of a mutation on the interaction: decreasing interaction
Substance: ADP-ribosylation factor 1 (Homo sapiens), P84077 T32N

From IntAct's records for PubMed 15143060
